Tested on: mutant form of α-Gal A expressed in HEK-293 cells
Test: HEK assay (GLP HEK / Migalastat Amenability Assay): α-Gal A activity in lysates of transiently transfected HEK-293 cells incubated with or without 10 μM migalastat
Assay type: cell-based, human
Settings: for Absolute increase (% WT) / Relative increase: 10 μM migalastat versus baseline; for Baseline α-Gal A activity (% WT): absence of migalastat; for Baseline α-Gal A activity (% WT) / 10 μM migalastat α-Gal A activity (% WT): percentage of baseline wild-type α-Gal A activity; for Baseline α-Gal A activity (% WT) / Baseline α-Gal A activity / 10 μM migalastat α-Gal A activity / 10 μM migalastat α-Gal A activity (% WT): mean ± SEM; for Baseline α-Gal A activity / 10 μM migalastat α-Gal A activity: lysates of HEK-293 cells transiently transfected with the mutant form; for Baseline α-Gal A activity: incubated 5 days in absence of migalastat; for 10 μM migalastat α-Gal A activity: incubated 5 days with 10 μM migalastat; for 10 μM migalastat α-Gal A activity (% WT): with 10 μM migalastat, 5 days
Summary of the method: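 HEK-293 cells transiently transfected with mutant α-Gal A and incubated with or without 10 μM migalastat; lysate activity given as nmol free 4-MU released per mg protein per hour. Values are mean±SEM.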

B1: Q333L (protein)
chain: MQLRNPELHLGCALALRFLALVSWDIPGARALDNGLARTPTMGWLHWERFMCNLDCQEEPDSCISEKLFMEMAELMVSEGWKDAGYEYLCIDDCWMAPQRDSEGRLQADPQRFPHGIRQLANYVHSKGLKLGIYADVGNKTCAGFPGSFGYYDIDAQTFADWGVDLLKFDGCYCDSLENLADGYKHMSLALNRTGRSIVYSCEWPLYMWPFQKPNYTEIRQYCNHWRNFADIDDSWKSIKSILDWTSFNQERIVDVAGPGGWNDPDMLVIGNFGLSWNQQVTQMALWAIMAAPLFMSNDLRHISPQAKALLQDKDVIAINQDPLGKQGYQLRLGDNFEVWERPLSGLAWAVAMINRQEIGGPRSYTIAVASLGKGVACNPACFITQLLPVKRKLGFYEWTSRLRSHINPTGTVLLQLENTMQMSLKDLL
With B1 the “Absolute increase (% WT)” value was 24.7 % WT, the Relative increase was 1.3 and the “Baseline α-Gal A activity (% WT)” value was 68.6 ± 2.9 % WT. The “Baseline α-Gal A activity” value was 25450 ± 2094 nmol/mg/h, the “10 μM migalastat α-Gal A activity” value was 33727 ± 1965 nmol/mg/h and the “10 μM migalastat α-Gal A activity (% WT)” value was 93.3 ± 4.1 % WT.

B2: Q333P (protein)
chain: MQLRNPELHLGCALALRFLALVSWDIPGARALDNGLARTPTMGWLHWERFMCNLDCQEEPDSCISEKLFMEMAELMVSEGWKDAGYEYLCIDDCWMAPQRDSEGRLQADPQRFPHGIRQLANYVHSKGLKLGIYADVGNKTCAGFPGSFGYYDIDAQTFADWGVDLLKFDGCYCDSLENLADGYKHMSLALNRTGRSIVYSCEWPLYMWPFQKPNYTEIRQYCNHWRNFADIDDSWKSIKSILDWTSFNQERIVDVAGPGGWNDPDMLVIGNFGLSWNQQVTQMALWAIMAAPLFMSNDLRHISPQAKALLQDKDVIAINQDPLGKQGYQLRPGDNFEVWERPLSGLAWAVAMINRQEIGGPRSYTIAVASLGKGVACNPACFITQLLPVKRKLGFYEWTSRLRSHINPTGTVLLQLENTMQMSLKDLL
In the case of B2, the “Absolute increase (% WT)” value is reported as 31.0 % WT, the Relative increase is reported as 1.9 and the “Baseline α-Gal A activity (% WT)” value is reported as 30.3 ± 1.7 % WT. The “Baseline α-Gal A activity” value was 11819 ± 1039 nmol/mg/h, the “10 μM migalastat α-Gal A activity” value was 22746 ± 1255 nmol/mg/h and the “10 μM migalastat α-Gal A activity (% WT)” value was 61.3 ± 3.9 % WT.

B3: G334R (protein)
chain: MQLRNPELHLGCALALRFLALVSWDIPGARALDNGLARTPTMGWLHWERFMCNLDCQEEPDSCISEKLFMEMAELMVSEGWKDAGYEYLCIDDCWMAPQRDSEGRLQADPQRFPHGIRQLANYVHSKGLKLGIYADVGNKTCAGFPGSFGYYDIDAQTFADWGVDLLKFDGCYCDSLENLADGYKHMSLALNRTGRSIVYSCEWPLYMWPFQKPNYTEIRQYCNHWRNFADIDDSWKSIKSILDWTSFNQERIVDVAGPGGWNDPDMLVIGNFGLSWNQQVTQMALWAIMAAPLFMSNDLRHISPQAKALLQDKDVIAINQDPLGKQGYQLRQRDNFEVWERPLSGLAWAVAMINRQEIGGPRSYTIAVASLGKGVACNPACFITQLLPVKRKLGFYEWTSRLRSHINPTGTVLLQLENTMQMSLKDLL
With B3 the “Absolute increase (% WT)” value was 17.5 % WT, the Relative increase was 1.2 and the “Baseline α-Gal A activity (% WT)” value was 58.9 ± 4.6 % WT. The “Baseline α-Gal A activity” value was 25886 ± 3237 nmol/mg/h, the “10 μM migalastat α-Gal A activity” value was 31174 ± 2016 nmol/mg/h and the “10 μM migalastat α-Gal A activity (% WT)” value was 76.4 ± 2.7 % WT.
